Values quoted from earlier work in PMC11260871.

Legend:
laminin alpha2 = laminin alpha2 (UniProt P24043)
laminin alpha4 = laminin alpha4 (UniProt Q16363)
laminin alpha5 = laminin alpha5 (UniProt O15230)
laminin alpha1 = laminin alpha1 (UniProt P25391)
[1] = target: laminin gamma LN domain LN (UniProt P11047)
laminin gamma1 LEb = laminin gamma1 LEb (UniProt P11047)

Sequence of UniProt O15230 (O15230 36-3695): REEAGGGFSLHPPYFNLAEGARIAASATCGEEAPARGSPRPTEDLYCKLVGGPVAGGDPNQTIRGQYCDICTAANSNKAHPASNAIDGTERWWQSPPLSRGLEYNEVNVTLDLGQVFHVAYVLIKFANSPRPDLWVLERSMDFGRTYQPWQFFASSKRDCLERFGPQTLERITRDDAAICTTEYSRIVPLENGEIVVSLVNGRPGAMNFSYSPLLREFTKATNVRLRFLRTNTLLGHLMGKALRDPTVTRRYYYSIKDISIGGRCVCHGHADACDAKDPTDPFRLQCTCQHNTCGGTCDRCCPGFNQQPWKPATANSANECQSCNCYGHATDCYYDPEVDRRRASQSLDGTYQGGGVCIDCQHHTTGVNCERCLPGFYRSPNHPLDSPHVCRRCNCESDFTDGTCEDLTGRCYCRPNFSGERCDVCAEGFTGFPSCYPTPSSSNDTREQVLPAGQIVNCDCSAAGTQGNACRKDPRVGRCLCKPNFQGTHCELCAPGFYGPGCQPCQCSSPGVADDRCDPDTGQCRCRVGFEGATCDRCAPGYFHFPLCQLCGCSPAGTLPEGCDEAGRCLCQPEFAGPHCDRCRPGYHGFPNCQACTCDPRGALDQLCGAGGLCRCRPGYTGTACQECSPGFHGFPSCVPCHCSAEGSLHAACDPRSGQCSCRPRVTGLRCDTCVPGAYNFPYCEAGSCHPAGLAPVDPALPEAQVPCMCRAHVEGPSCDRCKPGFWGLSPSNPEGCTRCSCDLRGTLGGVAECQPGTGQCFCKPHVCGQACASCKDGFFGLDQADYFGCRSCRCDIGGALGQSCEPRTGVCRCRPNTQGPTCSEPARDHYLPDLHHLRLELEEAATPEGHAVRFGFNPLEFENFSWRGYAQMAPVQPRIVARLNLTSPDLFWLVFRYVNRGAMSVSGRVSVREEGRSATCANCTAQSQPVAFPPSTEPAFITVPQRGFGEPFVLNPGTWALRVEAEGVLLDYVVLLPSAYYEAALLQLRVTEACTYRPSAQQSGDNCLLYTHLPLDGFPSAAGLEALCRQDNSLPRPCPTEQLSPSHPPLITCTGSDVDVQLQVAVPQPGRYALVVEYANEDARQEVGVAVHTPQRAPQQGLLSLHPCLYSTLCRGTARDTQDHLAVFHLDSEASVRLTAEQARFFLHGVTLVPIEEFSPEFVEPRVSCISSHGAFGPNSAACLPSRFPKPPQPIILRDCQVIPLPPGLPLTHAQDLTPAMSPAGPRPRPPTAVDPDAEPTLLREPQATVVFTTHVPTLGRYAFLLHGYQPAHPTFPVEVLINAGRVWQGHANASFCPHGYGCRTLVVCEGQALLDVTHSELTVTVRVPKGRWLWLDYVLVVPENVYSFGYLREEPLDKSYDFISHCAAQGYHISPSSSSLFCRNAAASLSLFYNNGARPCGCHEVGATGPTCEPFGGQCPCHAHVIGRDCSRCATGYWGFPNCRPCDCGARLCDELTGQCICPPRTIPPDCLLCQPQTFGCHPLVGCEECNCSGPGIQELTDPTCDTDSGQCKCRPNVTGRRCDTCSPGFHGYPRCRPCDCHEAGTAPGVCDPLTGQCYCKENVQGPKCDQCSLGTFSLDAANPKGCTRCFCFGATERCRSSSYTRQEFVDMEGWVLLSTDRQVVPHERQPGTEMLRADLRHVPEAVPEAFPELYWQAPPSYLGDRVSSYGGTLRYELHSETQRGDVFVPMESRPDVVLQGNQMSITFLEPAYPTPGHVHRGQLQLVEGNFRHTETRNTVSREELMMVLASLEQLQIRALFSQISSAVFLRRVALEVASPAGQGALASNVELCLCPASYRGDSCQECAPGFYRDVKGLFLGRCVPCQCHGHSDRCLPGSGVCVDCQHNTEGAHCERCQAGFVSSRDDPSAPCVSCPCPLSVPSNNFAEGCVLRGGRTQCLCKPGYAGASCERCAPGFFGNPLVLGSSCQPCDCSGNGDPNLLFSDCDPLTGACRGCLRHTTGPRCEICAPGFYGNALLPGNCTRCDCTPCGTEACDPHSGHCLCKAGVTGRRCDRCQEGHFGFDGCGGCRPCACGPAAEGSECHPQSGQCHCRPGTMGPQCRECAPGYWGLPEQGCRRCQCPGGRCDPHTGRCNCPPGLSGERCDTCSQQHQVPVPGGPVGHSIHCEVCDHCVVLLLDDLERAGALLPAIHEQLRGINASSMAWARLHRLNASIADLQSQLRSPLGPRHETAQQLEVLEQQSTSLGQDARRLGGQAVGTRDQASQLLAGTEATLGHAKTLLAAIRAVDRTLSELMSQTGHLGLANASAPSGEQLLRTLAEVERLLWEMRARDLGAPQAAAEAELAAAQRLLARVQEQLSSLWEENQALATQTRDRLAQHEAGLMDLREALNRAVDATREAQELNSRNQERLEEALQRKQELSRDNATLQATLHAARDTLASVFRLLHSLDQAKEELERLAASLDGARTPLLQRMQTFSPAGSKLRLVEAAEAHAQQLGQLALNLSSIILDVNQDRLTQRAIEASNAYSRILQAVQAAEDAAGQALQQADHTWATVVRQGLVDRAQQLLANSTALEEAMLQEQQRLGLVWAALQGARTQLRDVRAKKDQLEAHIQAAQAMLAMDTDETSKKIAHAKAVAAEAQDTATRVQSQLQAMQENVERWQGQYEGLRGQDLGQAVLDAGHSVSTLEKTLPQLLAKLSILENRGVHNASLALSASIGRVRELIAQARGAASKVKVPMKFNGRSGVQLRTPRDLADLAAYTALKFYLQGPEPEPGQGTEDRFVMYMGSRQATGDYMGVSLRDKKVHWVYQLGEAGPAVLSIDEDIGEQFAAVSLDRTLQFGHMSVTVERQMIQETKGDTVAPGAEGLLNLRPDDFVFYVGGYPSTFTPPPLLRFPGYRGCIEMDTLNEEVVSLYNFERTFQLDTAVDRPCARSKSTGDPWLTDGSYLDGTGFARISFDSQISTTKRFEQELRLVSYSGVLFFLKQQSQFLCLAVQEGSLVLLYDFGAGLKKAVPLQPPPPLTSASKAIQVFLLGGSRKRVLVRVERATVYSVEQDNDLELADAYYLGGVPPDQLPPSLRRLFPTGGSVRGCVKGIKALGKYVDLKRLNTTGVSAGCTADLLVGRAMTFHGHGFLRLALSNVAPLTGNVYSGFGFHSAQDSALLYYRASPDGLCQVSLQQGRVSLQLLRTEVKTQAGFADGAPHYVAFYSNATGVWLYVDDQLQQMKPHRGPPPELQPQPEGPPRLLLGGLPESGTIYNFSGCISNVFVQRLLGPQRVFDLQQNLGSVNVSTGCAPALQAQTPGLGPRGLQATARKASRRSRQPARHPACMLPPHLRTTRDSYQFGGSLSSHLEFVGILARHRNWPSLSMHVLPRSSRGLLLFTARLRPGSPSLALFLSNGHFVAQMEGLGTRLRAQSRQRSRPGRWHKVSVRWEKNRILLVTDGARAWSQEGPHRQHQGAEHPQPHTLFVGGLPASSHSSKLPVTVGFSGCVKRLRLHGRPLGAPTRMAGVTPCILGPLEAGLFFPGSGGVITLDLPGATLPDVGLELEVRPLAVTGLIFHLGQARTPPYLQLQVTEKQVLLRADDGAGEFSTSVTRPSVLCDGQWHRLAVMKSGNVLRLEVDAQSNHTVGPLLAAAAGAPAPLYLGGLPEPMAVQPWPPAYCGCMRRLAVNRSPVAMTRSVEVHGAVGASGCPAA

Substance: alpha-dystroglycan (from UniProt Q14118)
- Kd (laminin alpha2): 43 nM
- Kd (laminin alpha4): > 1000 nM
- Kd (laminin alpha5): 150 nM
- Kd (laminin alpha1): 20 nM

Substance: laminin beta LN domain LN (from UniProt P07942)
- Kd [1]: 18000 nM

Substance: nidogen-1 G3 (from UniProt P14543)
- Kd (laminin gamma1 LEb): < 1 nM
